Measurements published in the DeepSol protein solubility set.

Assay: soluble on expression in E. coli; label from the status in PepcDB or PDB records

Sequence | soluble on expression in E. coli
MGSSHHHHHHSSGRENLYFQGMPIITFLPSGKRAEVDEGKTILSAAQEIGEGIRSLCGGKGSCGKCLVVVRKGDVEILSEEAHEKFVREKGYYLACQTAVKGDVEVFIPPESRLERQQILKDFFISSKEFNPVVKVEFCSDAFLPEVLSQKGLRLACSTDVEEGDFGLVVRGKEVIDVLPDEKAFGLAVDVGTTTIVAALVDLKDGKVVNVASDYNGQIIYGEEVLSRVEFARSRKDGVEVLQRAVVESINKLIDKLLEGYATPDRIYDVVAAGNTIMTHFLVGKDVEYLFSSPDVKVEREGFVVNASEIGLKVNSNAELFCLPPVGRFVGGDIVGDILASRIVDSATISLMVDLGTNGEIVVGSEGWAMATSVASGPAFEGYEIKHGSRAVEGAIDHVEIEGEEVRYTVIGNGKPRSICGSGLIDLMAEMFKNGILDATGAMNKKHPRVRRGEDGYEFVVVEAEKSATAKDIVFTEKDVETLLKSKAAVCAGIAVLIKKAGLGLEDIDEFYIAGAFGYYINFDNAVTIGLFPELKAEVKQIGNGSLAGAYLALVSERKRKLAETIANAFAYFDLSTDADFVEEYRAALSLPGRPELFPETYAKYV | soluble
MRVRNRKGATELLEANPQYVVLNPLEAKAKWRDLFGNDNPIHVEVGSGKGAFVSGMAKQNPDINYIGIDIQKSVLSYALDKVLEVGVPNIKLLWVDGSDLTDYFEDGEIDRLYLNFSDPWPKKRHEKRRLTYKTFLDTFKRILPENGEIHFKTDNRGLFEYSLVSFSQYGMKLNGVWLDLHASDFEGNVMTEYEQKFSNKGQVIYRVEAEF | soluble
SAVAVEGARRKERILCLFDVDGTLTPARQKIDPETIQNHLGEELLQDLINFCLSYMALLRLPKKRGTFIEFRNGMLNVSPIGRSCTLEERIEFSELDKKEKIREKFVEALKTEFAGKGLRFSRGGMISFDVFPEGWDKRYCLDSLDEDSFDIIHFFGNETSPGGNDFEIYADPRTVGHSVVSPQDTVQRCRELFFPETAHEA | soluble
MDDPVADQPDGTDETPDGDTAGSSPIGLADAQARAREAVAELLEHPFDGIITAESGADGGWRILAEVVERSAVPDTQDIIGRYEITLDDGGRVLEHHHHHH | not soluble
HHHHHHSSGLVPRGSHMGGTGSGMTPGEAWKKQLNKLGKTQFEQYKRSCILEVDRTHARDSLENGIQNGIAVSRGSAKLRWMEERGYVKPTGIVVDLGCGRGGWSYYAASLKNVKKVMAFTLGVQGHEKPIMRTTLGWNLIRFKDKTDVFNMEVIPGDTLLCDIGESSPSIAVEEQRTLRVLNCAKQWLQEGNYTEFCIKVLCPYTPLIMEELSRLQLKHGGGLVRVPLSRNSTHEMYWVSGTRTDVVGTVSNVSRLLTRRMLNKPQPPTLEDDVILDMGTR | soluble
MGSDKIHHHHHHMSDLQSLQPKLLWQWFDQICAIPHPSYKEEQLAQFIINWAKTKGFFAERDEVGNVLIRKPATVGMENRKPVVLQAHLDMVPQANEGTNHNFDQDPILPYIDGDWVKAKGTTLGADNGIGMASALAVLESNDIAHPELEVLLTMTEERGMEGAIGLRPNWLRSEILINTDTEENGEIYIGCAGGENADLELPIEYQVNNFEHCYQVVLKGLRGGHSGVDIHTGRANAIKVLLRFLAELQQNQPHFDFTLANIRGGSIRNAIPRESVATLVFNGDITVLQSAVQKFADVIKAELALTEPNLIFTLEKVEKPQQVFSSQCTKNIIHCLNVLPNGVVRNSDVIENVVETSLSIGVLKTEDNFVRSTMLVRSLIESGKSYVASLLKSLASLAQGNINLSGDYPGWEPQSHSDILDLTKTIYAQVLGTDPEIKVIHAGLECGLLKKIYPTIDMVSIGPTIRNAHSPDEKVHIPAVETYWKVLTGILAHIPSR | not soluble
SLRVSASMSLVVLTFLLTCFMVRPMTAVTSDPLDFHWPGSRILAVGDLHGDIGNTMLLLYGAGVVDEDGNWIAGDTLLIQTGDVVDRGPDGKRIYDYFASLSAQATEQGGKIIQLLGNHDVMNICGDFRYAHPSETIEFGGALERRRQFMDGGHYGNMLRSFPLSIKANGVIFSHAGIPSDFAVLGLSKLTQQLREELANDCKLHNSRFYNEAMGSSTGDLFVAGSQGPLWTRVYSMGQMTKICEELDKTLGILDSEKMVIGHTVQESGNIEVYCGGRLLLIDTGVSRYVADSPRMLEIRDGTFFEWRLDISKQGTDSEPNVRGSKRQLNIPPLKN | not soluble
MGSDKIHHHHHHMTLLDEAVVLNDGSLMPKVGVVVGNKPADDAIKAGYRLIDCSLDQKTKLKAENPQLYVEVQVPEDVITRDDFKKIRQDIIDHHADLCLLKLSDNKEKNGQIWQELEQLKIQGWIKNIGVINISVDALNELLNHTQVRPCVAQISYEDQGLINLARENRIQVEIPVHGDINALAEIASHYGTSSVELVMRYFSQKGIVPLFEIEDVVENPRINFTINAEDLATIGQLFAQK | not soluble
MGSDKIHHHHHHMIRETRQIHVGNVAIGGGAPCSVQSMCNTDTRDVAATLSQVLSLSSAGCEIVRCAVPDMAAAEALGEIKRQSPIPVIADIHFDYRLALRVLEGGIDGLRLNPGNIGERWKVEEVVKAARERLVPIRIGVNAGSLEKELLEKYGHPTAEAMVESALGHVRILEDIGYDQIKISLKASDVMKTVEAYRLLAQKVDYPLHIGITEAGTIFSGTIKSSVGLGILLADGIGDTMRVSLTGDPVDEVRVGFEILKALGLRQRGINFVSCPTCGRCQINLIGVAQEVENRLAAIDTPLTVAVMGCVVNGPGEAREADVGIAGGKGEGLLFRHGEIVRKVPEAEMADALIAEVEQMAKEKTHS | not soluble
MGHHHHHHSHMKVVLSLGGSVLSNESEKIREFAKTIESVAQQNQVFVVVGGGKLAREYIKRARELGASETFCDYIGIAATRLNAMLLISAIPSAAKKVPVDFMEAEELSKLYRVVVMGGTFPGHTTDATAALLAEFIKADVFINATNVDGVYSADPKSDTSAVKYDRLSPQQLVEIVSRSSAKAGTNVVIDLLAAKIIERSKIKTYVIL | soluble
MGSDKIHHHHHHMYKEYSPCSVLAPFIYHFWEYKGETRNGLKFNIPPHGRSDFVFIVGNAADCIRNSLIMKPYHSYFFGPMNTFTELVAHTNFIYIIGVRFRPCGLFRFIDIPLNELTNQGIDSHEFPVLFSQSFIYQLCESNQNPIDAIEHELVRQVYKNNTDTEKQISYAVSLISRQKGIVSIKELATEACLGLRQFERKFKFYTGYSPKEYSRIVKFWNAIHLLKSNTSFDNFLSVAIQAGYYDTPHLYREVKRLSGNTPNAFLSLSTNEKVEVLHIEL | not soluble
MGHHHHHHSHMAQLENQILETLKPLIDANTGKSYVAAKNVKNLKCGDAEISLDVVLAYPAKSQFDAVRQQFEAALAPLAEGRAIKIAVSAQIVSHSAQRGVPLLPGVKNVIAVASGKGGVGKSTTAANLALALADEGARVGLLDADIYGPSQPLMMGLQGQRPETADGKLTPLSNHGIQTMSIGYLVDADQAMVWRGPMVSQALQQLLNDTRWDDLDYLVIDMPPGTGDVQLTLSQKVPVTGALIVTTPQDIALLDARKGVTMFQKVGVPILGLVENMAIHVCSNCGHAEHIFGEGGAVKMAQDFGVELLGSLPLDLAIRQAVDEGRPSVAADPSGKPAELYRAIARRVAVKVGEKAQDFSGKFPKIVIQNN | soluble
MLKINVKYQLKNTLIRINIDDTEPKIYAVRGPSGIGKTTVLNMIAGLRKADEAIIEVNGQLLTDTAKNVNVKIQQRRIGYLFQDYQLFPNMTVYKNITFMAEPSEHIDQLIQTLNIDHLMKQYPMTLSGGEAQRVALARALSTKPDLILLDEPFSSLDDTTKDESITLVKRIFNEWQIPIIFVTHSNYEAEQMAHEIITIG | not soluble
MMFGRFTQRAQKVLALSQEEAMRLNHSNLGTEHILLGLVREGEGIAAKALYELGISSEKVQQEVEGLIGHGEKAVTTIQYTPRAKKVIELSMDEARKLGHTYVGTEHILLGLIREGEGVAARVLSNLGISLNKARQQVLQLLGGGDATGAGRQTNTQATPTLDSLARDLTVIAREDNLDPVIGRSKEIQRVIEVLSRRTKNNPVLIGEPGVGKTAIAEGLAQQIVRNEVPETLRGKRVMTLDMGTVVAGTKYRGEFEDRLKKVMDEIRQAGNVILFIDELHTLIGAGGAEGAIDASNILKPPLARGELQCIGATTLDEYRKYIEKDAALERRFQPIKVDEPTVEESIQILHGLRDRYEAHHRVAITDEALEAAVRLSDRYISDRFLPDKAIDVIDESGSKVRLKSFTTPKNVKEMENNLSDLKKEKDAAVQGQEFEKAASLRDKEQKLKKSLEETKANWQEKQGLDHSEVTEDIVAEVVASWTGIPVAKLAETETNKLLNMEKLLHERVIGQDAAVKAVSLAVRRARAGLKDPKRPIGSFIFLGPTGVGKTELARALAESMFGDEDSMIRIDMSEYMEKFSTARLVGAPPGYVGYEEGGQLTEKVRQKPYSVVLLDEIEKAHPDVFNMLLQVLDDGRLTDSKGRVVDFRNTVIIMTSNIGAQEMKQDKSMGFNVTDPLKDHKAMEHRVLQDLKQAFRPEFINRIDETIVFHSLQEKELKQIVTLLTAQLTKRLAERDIHVKLTEGAKSKIAKDGYDPEYGARPLKRAIQKEVEDMLSEELLRGNIKVGDYVEIGVKDGKLEVRKKDAPKKKTTSKKVKAK | not soluble
YEGEKSVVVPVSATYKELHKLMEKEFKGKEFSVVDYDDDETILLIAVQSDKLYGTYYQFDTRTKKFTLLYDLMPQLKEEDMAEMRPIKFKSRDGLTIHGFITLPKAALEGKKVPLIVNPHGGPQGIRDSWGFNPETQLFASRGYATLQVNFRISGGYGKEFLRAGFKQIGRKAMDDVEDGVRYAISQGWVDPDRIAIYGASHGGYATLMGLVKTPDLYACGVDYVGVSNIYTFFDSFPEYWKPFKEMVKEIWYDLDNPEEAAIAKEVSPFFQIDKINKPLFVVQGANDPRVNINESDQIVTALRARGFEVPYMVKYNEGHGFHREENSMELYRAMLGFFAKHLK | not soluble
MSFRTIEWRDDKVVMIDQTRLPGEEVYCEYADYKSVAEAIRGMVIRGAPAIGVAAAMGVALGAREIIADTYESFFRQMENVCDVMARTRPTAVNLFWAIERMKRVADENRDKPLDQLREILKTEAIRIEQEDLELCKAIGRHGAALIPEGATVLTHCNAGGLATAGYGTALGVIRAAHDAGKKIQVFADETRPWLQGARLTAWELMKDGIPVTLISDNMAGFFMKRGEIACCVVGADRIAANGDTANKIGTYSVAVLAKENNIPFYVAAPTTTLDLSLENGDQIPIEERHSREVTHLHGFPVAPEGIRVRNPAFDVTPARYISAIITEQGVVSGDYVTGLRGLVAPLEHHHHHH | not soluble
MSRRYDTIKHLGEGQFANVYLAQDLESGECVAIKKIKLGSREEAKDGINRTAIREIKLLKEIHHDNIIGLRDVIGHRTSIQLVFDFMDTDLEHVIKDKEIILMPAHIKNITMQMLLGLEFLHVHWILHRDLKPNNLLMNKMGRVKLTDFGLARFFGSPNRNYTHQVVTRWYRAPELLFGARSYGVGIDIWSVGCIIAELLLRNPIFPGESDIDQLVKIFNILGCPTPETWPNMTEMNSYVIIKPQTEYMALNYYFSAAPQDLLDLMAGMWTFDPIKRLTCTQSLQMEYFRTQPFCCLDEELPLPKKQQPQKRSRRLDDDGTRPVRRLNFD | not soluble
MAHHHHHHMNAMYSADQIHVPPELGTIMKQYTKAVMRDKPTDLYKYSANFFAILSGYAAPFDSEGQLMENGVQEASSRSTVPISFGSEKEENAGSQDPTDILLRRYDRTGTGYMDPAELPQLLAELRMNLSLDEKDVVSAEDILAALPSACDQIDLLELRNLLLESMGD | soluble
MGSSHHHHHHGKTIFVIVPTNEEQVAFLEALAKQDELNFDWQNPPTEPGQPVVILIPSDMVEWFLEMLKAKGIPFTVYVEEGGSENLYFQGGGGGGRTGFNTAYSRCTYLVMMGEYKQLLEPGTFPSNDRLPPHLRLDKLSYLDLRDTEIALPPVIDVSLSNRDQVRQLEGQLPSTERSDLHVHFGPIKSQTIIMTPSSNERYVRRRLGLSEKDRKNLEAESQQAFAQARS | soluble
